In patent publication US7098304B1, “Assay for the diagnosis of schizophrenia based on a new peptide” (Yeda Research and Development Co. Ltd., priority 1998, dated 2006):

B1: Enolase from Rabbit: commercially available rabbit protein enolase (protein)
chain: AMQKIFAREILDSRGNPTVEVDLHTAKGRFRAAVPSGASTGIYEALELRDGDKSRYLGKGVLKAVEHINKTLGPALLEKKLSVVDQEKVDKFMIELDGTENKSKFGANAILGVSLAVCKAGAAEKGVPLYRHIADLAGNHDLVLPVPAFNVINGGSHAGNKLAMQEFMILPVGASSFREAMRIGAEVYHHLKGVIKAKYGKDATNVGDEGGFAPNILENNEALELLKTAIQAAGYPDKVVIGMDVAASEFHRNGKYDLDFKSPDDPARHITGQKLGELYKSFIKNYPVVSIEDPFDQDDWATWTSFLSGVDIQIVGDDLTVTNPKRIAQAVEKKACNCLLLKVNQIGSVTESIQACKLAQSNGWGVMVSHRSGETEDTFIADLVVGLCTGQIKTGAPCRSERLAKYNQLMRIEEALGDKAVFAGRKFRNPKAK
B2: G-3-P-Dehydrogenase from bacillus subtilis: glyceraldehyde-3-phosphate dehydrogenase (G3PD) enzyme from bacillus subtilis (protein)
chain: AVKVGINGFGRIGRNVFRAALNNPEVEVVAVNDLTDANMLAHLLQYDSVHGKLDAEVSVDGNNLVVNGKTIEVSAERDPAKLSWGKQGVEIVVESTGFFTKRADAAKHLEAGAKKVIISAPANEEDITIVMGVNEDKYDAANHDVISNASCTTNCLAPFAKVLNDKFGIKRGMMTTVHSYTNDQQILDLPHKDYRRARAAAENIIPTSTGAAKAVSLVLPELKGKLNGGAMRVPTPNVSLVDLVAELNQEVTAEEVNAALKEAAEGDLKGILGYSEEPLVSGDYNGNKNSSTIDALSTMVMEGSMVKVISWYDNESGYSNRVVDLAAYIAKKGL

Tests used:
[1] = test system: NSDAs (non-schizophrenic derived antibodies); assay: Reactivity of proteins to NSDAs (platelet autoantibodies from control non-schizophrenic individuals), blot with anti-human Fc-HRP; type: binding; settings: number of NSDA samples that reacted positively with the enzyme, of 8 controls
Method: (§1) 1. Platelets and Anti-Platelet Autoantibodies Venous blood (20 ml) was drawn with heparin as anticoagulant from patients and control subjects. Platelet rich plasma (PRP) was obtained by centrifugation (100 g for 20 mins) at room temperature. Plasma free platelets were obtained by washing them three times with phosphate buffered saline (PBS) supplemented with 10 ml mM EDTA as anticoagulant (4000 g; 15 mins; 4° C.). For the isolation of anti-platelet antibodies, the platelets were incubated with 0.1 M glycine/10 mM EDTA, pH 2.8, for 10 min. at room temperature and then centrifuged (4000 g; 15 min; 4° C.). The supernatant containing the anti-platelet antibodies, was neutralized with saturated Na2PO4 solution and stored at −20 until use. 2. Preparative Isoelectric Focusing
(§2) The fractions were analyzed for immuno-reactivity by polyacrylamide (10%) gel electrophoresis, blotting the proteins onto PVDF membranes and probing the membrane with 1 ml auto-antibodies in 50 ml incubation buffer. Anti-human Fc conjugated to horseradish peroxidase (goat) from SIGMA (1:500 dilution) and Fast-DAB™ (SIGMA) or 4-Chloro-naphthol (SIGMA) were used as color reagent in order to detect bound human anti-platelet antibodies.
(§3) Every fifth fraction (0.1 ml) was dot blotted onto PVDF membranes using the DotBlot device (96 wells) from BioRad. Immuno-reactive fractions were then detected as described above (1.3) […]

[2] = test system: SDAs (schizophrenic derived antibodies); assay: Reactivity of proteins to SDAs (platelet autoantibodies from schizophrenic patients), blot with anti-human Fc-HRP; type: binding; settings: number of SDA samples that reacted positively with the enzyme, of 8 patients
Method: as §1, §2, §3

Row | Molecule | Controls (n = 8) Positive [1] | Patients (n = 8) Positive [2]
1 | B1 | 1/8 | 7/8
2 | B2 | 2/8 | 1/8
